What was measured:
purified protein [1] = substrate: Nc1ncnc2c1ncn2[C@@H]1O[C@H](COP(=O)(O)OP(=O)(O)OP(=O)(O)O)[C@@H](O)[C@H]1O; assay: purified protein; assay type: biochemical, Clostridium thermosuccinogenes; settings: 5 mM D-galactose, 10 mM MgCl2, 100 mM KCl, MOPS pH 7.0, 55 °C
purified protein [2] = substrate: Nc1nc2c(ncn2[C@@H]2O[C@H](COP(=O)(O)OP(=O)(O)OP(=O)(O)O)[C@@H](O)[C@H]2O)c(=O)[nH]1; assay: purified protein; assay type: biochemical, Clostridium thermosuccinogenes; settings: 5 mM D-galactose, 10 mM MgCl2, 100 mM KCl, MOPS pH 7.0, 55 °C

B1: galactokinase (GalK), CDQ83_02810 (Clostridium thermosuccinogenes) (protein)
chain: DINQLKQKFIEIFGDNGEALRVFSSPGRVNLIGEHTDYNGGYVFPAALTLSSTVVARPRKDRQINLIATDLGIMVSASLDELEKHKDIKWGNYQLGVADELQKAGYKLVGCDMLFHDTVPLGSGLSSSAAIEVVTAITLVTLGNEAHGVNSGIDMVEMAKISQTAEHNYVGVNCGIMDQFASAMGKANHAIFLDCKDLSFEHVPLDLKGYRIVISNTKKKRSLGAVKYNERRSECEAGLEILKKAIPGISCLGEISAEQFEKNKHLITDEVVRKRVEHVIYEDDRVLKSVEALKKGDLHSFGRYMIESHNSLRDLYEVTGLELDTLVEEALKIDGVIGSRMTGAGFGGCTVSIVREDAVDRFIEDVGSAYTQKTGITAEFYVSEVGDGGREIK
notes: full length, N-terminal His6-TEV tag kept, E. coli Rosetta, HisTrap purified
Km (purified protein [1]): 3980 µM | kcat (purified protein [1]): 1.07 ⋅ 10^3 U/umol of | Km (purified protein [2]): 35 µM | kcat (purified protein [2]): 2.56 ⋅ 10^3 U/umol of
